The source of these data is article PMC3820547, “An Extended Network of Genomic Maintenance in the Archaeon Pyrococcus abyssi Highlights Unexpected Associations between Eucaryotic Homologs” (PLoS ONE, 2013).

The experiment deals with T1, Mre11/Rad50 complex (Q9UZC9, Q9UZC8), HIS fusion (Pyrococcus abyssi, UniProt Q9UZC9 1-415; Q9UZC8 1-880).
T1 construct: Mre11 of Pyrococcus abyssi, full length, in the FL complex; Rad50 of Pyrococcus abyssi, full length, in the FL complex; also called Mre11 complex; source: E. coli Rosetta, purified on magnetic beads (details in Materials S1); not shown: His tag, N-terminal, kept
T1 sequence (Q9UZC9 whole entry, chain 1 of 2, the tested form may be a part): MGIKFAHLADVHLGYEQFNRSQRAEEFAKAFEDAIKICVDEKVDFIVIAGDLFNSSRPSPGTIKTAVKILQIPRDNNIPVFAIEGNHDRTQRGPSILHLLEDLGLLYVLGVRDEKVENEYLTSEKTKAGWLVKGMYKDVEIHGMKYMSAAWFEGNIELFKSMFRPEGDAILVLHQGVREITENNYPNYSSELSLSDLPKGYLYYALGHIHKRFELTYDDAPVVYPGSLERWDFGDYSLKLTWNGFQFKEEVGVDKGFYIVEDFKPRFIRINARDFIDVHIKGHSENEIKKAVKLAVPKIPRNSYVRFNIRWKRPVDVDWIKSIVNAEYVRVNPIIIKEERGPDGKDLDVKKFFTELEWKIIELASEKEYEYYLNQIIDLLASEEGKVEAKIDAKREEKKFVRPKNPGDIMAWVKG
T1 sequence (Q9UZC8 whole entry, chain 2 of 2, the tested form may be a part): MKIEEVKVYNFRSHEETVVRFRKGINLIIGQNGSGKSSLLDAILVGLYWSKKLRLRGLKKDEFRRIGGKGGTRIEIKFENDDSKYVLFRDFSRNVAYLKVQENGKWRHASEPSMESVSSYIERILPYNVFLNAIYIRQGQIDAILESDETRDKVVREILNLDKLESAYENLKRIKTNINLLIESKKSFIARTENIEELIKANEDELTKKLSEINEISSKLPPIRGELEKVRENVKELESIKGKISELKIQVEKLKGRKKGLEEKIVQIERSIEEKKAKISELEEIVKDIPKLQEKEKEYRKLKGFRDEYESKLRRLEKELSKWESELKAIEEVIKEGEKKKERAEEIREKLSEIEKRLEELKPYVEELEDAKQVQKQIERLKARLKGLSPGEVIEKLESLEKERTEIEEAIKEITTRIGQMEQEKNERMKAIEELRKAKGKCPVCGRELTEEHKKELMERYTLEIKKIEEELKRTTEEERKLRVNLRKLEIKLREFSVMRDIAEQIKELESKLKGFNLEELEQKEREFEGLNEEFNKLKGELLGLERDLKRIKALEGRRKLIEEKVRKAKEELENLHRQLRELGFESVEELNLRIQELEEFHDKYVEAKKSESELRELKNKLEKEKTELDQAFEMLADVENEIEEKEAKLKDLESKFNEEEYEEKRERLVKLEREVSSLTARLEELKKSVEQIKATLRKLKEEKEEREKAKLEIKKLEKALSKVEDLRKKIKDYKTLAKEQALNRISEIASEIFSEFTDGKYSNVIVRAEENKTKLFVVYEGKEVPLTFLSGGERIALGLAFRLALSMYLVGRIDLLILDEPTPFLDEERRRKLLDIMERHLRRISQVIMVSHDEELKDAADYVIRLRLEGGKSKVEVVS
The experiment can be described thus: pull-down; 10 ug HIS fusion Mre11/Rad50 immobilised on Co2+ magnetic beads, with or without DNase I treatment, incubated with 0.5 ug PCNA 1 h at room temperature in TrisHCl 20 mM pH 8, NaCl 150 mM, DTT 1 mM with BSA; Western blot with anti-PCNA and anti-HisTag. The following applies: both partners purified. A general note: In western blotting, separated proteins are transferred to a membrane and probed.

B1: purified PCNA (prey of the Mre11/Rad50 pull-down) (natural protein, Pyrococcus abyssi, UniProt Q9UYX8 1-249, looked up)
chain: MPFEIVFEGAKEFAQLIETASRLIDEAAFKVTEEGISMRAMDPSRVVLIDLNLPASIFSKYEVDGEETIGVNMDHLKKVLKRGKAKETLILRKGEENFLEISLQGTATRTFKLPLIDVEEIEVDLPELPFTAKVVILGDVIKEAVKDASLVSDSMKFIAKENEFTMRAEGETQEVEVKLTLEDEGLLDIEVQEETKSAYGISYLSDMVKGLGKADEVTIKFGNEMPMQMEYYIRDEGRLIFLLAPRVEE
notes: it was the prey on Co2+ beads and was detected with anti-PCNA, so it is kept apart from m1; source: purified
As for B1, the binding result is reported as “binds”.
